Data as given in article PMC3988174, “A Split-Ubiquitin Yeast Two-Hybrid Screen to Examine the Substrate Specificity of atToc159 and atToc132, Two Arabidopsis Chloroplast Preprotein Import Receptors” (PLoS ONE, 2014).

B1: Ferredoxin-thioredoxin reductase subunit A (natural protein, Arabidopsis thaliana, UniProt Q9SJ89 1-146, looked up)
chain: MNLQAVSCSFGFLSSPLGVTPRTSFRRFVIRAKTEPSEKSVEIMRKFSEQYARRSGTYFCVDKGVTSVVIKGLAEHKDSYGAPLCPCRHYDDKAAEVGQGFWNCPCVPMRERKECHCMLFLTPDNDFAGKDQTITSDEIKETTANM
B2: Violaxanthin Deepoxidase (natural protein, Arabidopsis thaliana, UniProt Q39249 1-462, looked up)
chain: MAVATHCFTSPCHDRIRFFSSDDGIGRLGITRKRINGTFLLKILPPIQSADLRTTGGRSSRPLSAFRSGFSKGIFDIVPLPSKNELKELTAPLLLKLVGVLACAFLIVPSADAVDALKTCACLLKGCRIELAKCIANPACAANVACLQTCNNRPDETECQIKCGDLFENSVVDEFNECAVSRKKCVPRKSDLGEFPAPDPSVLVQNFNISDFNGKWYITSGLNPTFDAFDCQLHEFHTEGDNKLVGNISWRIKTLDSGFFTRSAVQKFVQDPNQPGVLYNHDNEYLHYQDDWYILSSKIENKPEDYIFVYYRGRNDAWDGYGGAVVYTRSSVLPNSIIPELEKAAKSIGRDFSTFIRTDNTCGPEPALVERIEKTVEEGERIIVKEVEEIEEEVEKEVEKVGRTEMTLFQRLAEGFNELKQDEENFVRELSKEEMEFLDEIKMEASEVEKLFGKALPIRKVR
B3: Protochlorophyllide oxidoreductase B (natural protein, Arabidopsis thaliana, UniProt P21218 1-401, looked up)
chain: MALQAASLVSSAFSVRKDAKLNASSSSFKDSSLFGASITDQIKSEHGSSSLRFKREQSLRNLAIRAQTAATSSPTVTKSVDGKKTLRKGNVVVTGASSGLGLATAKALAETGKWNVIMACRDFLKAERAAKSVGMPKDSYTVMHLDLASLDSVRQFVDNFRRTETPLDVLVCNAAVYFPTAKEPTYSAEGFELSVATNHLGHFLLARLLLDDLKKSDYPSKRLIIVGSITGNTNTLAGNVPPKANLGDLRGLAGGLNGLNSSAMIDGGDFDGAKAYKDSKVCNMLTMQEFHRRFHEETGVTFASLYPGCIASTGLFREHIPLFRALFPPFQKYITKGYVSETESGKRLAQVVSDPSLTKSGVYWSWNNASASFENQLSEEASDVEKARKVWEISEKLVGLA
B4: Photosystem I light harvesting complex gene 1 (natural protein, Arabidopsis thaliana, UniProt Q01667 1-241, looked up)
chain: MASNSLMSCGIAAVYPSLLSSSKSKFVSAGVPLPNAGNVGRIRMAAHWMPGEPRPAYLDGSAPGDFGFDPLGLGEVPANLERYKESELIHCRWAMLAVPGILVPEALGYGNWVKAQEWAALPGGQATYLGNPVPWGTLPTILAIEFLAIAFVEHQRSMEKDPEKKKYPGGAFDPLGYSKDPKKLEELKVKEIKNGRLALLAFVGFCVQQSAYPGTGPLENLATHLADPWHNNIGDIVIPFN
B5: 5′-Adenylylsulfate reductase 2 (natural protein, Arabidopsis thaliana, UniProt P92981 1-454, looked up)
chain: MALAVTSSSTAISGSSFSRSGASSESKALQICSIRLSDRTHLSQRRYSMKPLNAESHSRSESWVTRASTLIAPEVEEKGGEVEDFEQLAKKLEDASPLEIMDKALERFGDQIAIAFSGAEDVALIEYARLTGKPFRVFSLDTGRLNPETYRLFDAVEKQYGIRIEYMFPDAVEVQALVRNKGLFSFYEDGHQECCRVRKVRPLRRALKGLKAWITGQRKDQSPGTRSEIPIVQVDPVFEGLDGGVGSLVKWNPLANVEGADVWNFLRTMDVPVNALHAQGYVSIGCEPCTRPVLPGQHEREGRWWWEDAKAKECGLHKGNIKEEDGAADSKPAAVQEIFESNNVVALSKGGVENLLKLENRKEAWLVVLYAPWCPFCQAMEASYIELAEKLAGKGVKVAKFRADGEQKEFAKQELQLGSFPTILLFPKRAPRAIKYPSEHRDVDSLMSFVNLLR
B6: Photosystem I reaction center subunit PSI-N (natural protein, Arabidopsis thaliana, UniProt P49107 1-171, looked up)
chain: MAAMNSSVLTCSYAIAGSGSVELNQKVGLVNSSVGFGQKKQMIMPVIKAQRVVGDDVDGSNGRRSAMVFLAATLFSTAAVSASANAGVIDEYLERSKTNKELNDKKRLATSGANFARAFTVQFGSCKFPENFTGCQDLAKQKKVPFISEDIALECEGKDKYKCGSNVFWKW
B7: Cysteine synthase (natural protein)
chain: not shown
B8: Photosystem I light harvesting complex gene 2 (natural protein, Arabidopsis thaliana, UniProt Q9SYW8 1-257, looked up)
chain: MASSLCASSAIAAISSPSFLGGKKLRLKKKLTVPAVSRPDASVRAVAADPDRPIWFPGSTPPEWLDGSLPGDFGFDPLGLSSDPDSLKWNVQAEIVHCRWAMLGAAGIFIPEFLTKIGILNTPSWYTAGEQEYFTDKTTLFVVELILIGWAEGRRWADIIKPGSVNTDPVFPNNKLTGTDVGYPGGLWFDPLGWGSGSPAKLKELRTKEIKNGRLAMLAVMGAWFQHIYTGTGPIDNLFAHLADPGHATIFAAFTPK
B9: Photosystem I light harvesting complex gene 3 (natural protein, Arabidopsis thaliana, UniProt Q9SY97 1-273, looked up)
chain: MAAQALVSSSLTSSVQTARQIFGSKPVASASQKKSSFVVKAAATPPVKQGANRPLWFASSQSLSYLDGSLPGDYGFDPLGLSDPEGTGGFIEPRWLAYGEIINGRFAMLGAAGAIAPEILGKAGLIPAETALPWFQTGVIPPAGTYTYWADNYTLFVLEMALMGFAEHRRLQDWYNPGSMGKQYFLGLEKGLAGSGNPAYPGGPFFNPLGFGKDEKSLKELKLKEVKNGRLAMLAILGYFIQGLVTGVGPYQNLLDHLADPVNNNVLTSLKFH
B10: Cytochrome b561-2 (natural protein, Arabidopsis thaliana, UniProt Q8L856 1-239, looked up)
chain: MAVRINAMAVTFVAHALAVIAAIMVLVWSISYRGGLAWEATNKNLIFNLHPVLMLIGFIILGGEAIISYKSLPLEKPVKKLIHLILHAIALALGIFGICAAFKNHNESHIPNLYSLHSWIGIGVISLYGFQWVYSFIVFFFPGGSTNLKSGLLPWHAMLGLFVYILAVGNAALGFLEKLTFLENGGLDKYGSEAFLINFTAIITILFGAFVVLTASAESPSPSPSVSNDDSVDFSYSAI
B11: AIG2-like avirulence induced gene family protein (natural protein, Arabidopsis thaliana, UniProt Q9MBH2 1-169, looked up)
chain: MTSSDKSLSHDVFVYGSFQEPSVVNLILECSPVMVPAQLHGYHVYRLKGRLHACISPSENGLINGKILTGLTDSQLENLDMIEGSEYVRKTVEVVLTDTSEKKQVETYVWANKDDPNLYGEWDFEEWRRLHMDKFIEASTKFIEWKKNPDGRSREEFEKFVFDDPPTAA
B12: Low PSII accumulation 3 protein (natural protein)
chain: not shown
B13: Photosystem I subunit F (natural protein, Arabidopsis thaliana, UniProt Q9SHE8 1-221, looked up)
chain: MSLTIPANLVLNPRSNKSLTQSVPKSSARFVCSDDKSSSSTPQSMKAFSAAVALSSILLSAPMPAVADISGLTPCKDSKQFAKREKQQIKKLESSLKLYAPESAPALALNAQIEKTKRRFDNYGKYGLLCGSDGLPHLIVNGDQRHWGEFITPGILFLYIAGWIGWVGRSYLIAISGEKKPAMKEIIIDVPLASRIIFRGFIWPVAAYREFLNGDLIAKDV

Molecular target: T1, atToc132 A- plus G-domains bait (Arabidopsis thaliana, UniProt Q9SLF3 1-794)
T1 construct: atToc132, A. thaliana, A- and G-domains, amino acids 1-794; also called Toc132AG; atToc132AG; source: yeast two-hybrid fusion (pBT3-STE, S. cerevisiae NMY51); not shown: STE2 leader (N-terminal 13 amino acids of S. cerevisiae Ste2), N-terminal, kept; Cub-LexA-VP16, C-terminal, kept
Test: two-hybrid; pairwise split-ubiquitin yeast two-hybrid of isolated NubG-preys with Toc159G, Toc132G or Toc132AG bait in NMY51; growth on SD-LWHA (3-AT) and quantitative β-Gal assay, activity relative to a reference bait set to 100%
Details: partners not purified

T1 sequence (Q9SLF3 1-794): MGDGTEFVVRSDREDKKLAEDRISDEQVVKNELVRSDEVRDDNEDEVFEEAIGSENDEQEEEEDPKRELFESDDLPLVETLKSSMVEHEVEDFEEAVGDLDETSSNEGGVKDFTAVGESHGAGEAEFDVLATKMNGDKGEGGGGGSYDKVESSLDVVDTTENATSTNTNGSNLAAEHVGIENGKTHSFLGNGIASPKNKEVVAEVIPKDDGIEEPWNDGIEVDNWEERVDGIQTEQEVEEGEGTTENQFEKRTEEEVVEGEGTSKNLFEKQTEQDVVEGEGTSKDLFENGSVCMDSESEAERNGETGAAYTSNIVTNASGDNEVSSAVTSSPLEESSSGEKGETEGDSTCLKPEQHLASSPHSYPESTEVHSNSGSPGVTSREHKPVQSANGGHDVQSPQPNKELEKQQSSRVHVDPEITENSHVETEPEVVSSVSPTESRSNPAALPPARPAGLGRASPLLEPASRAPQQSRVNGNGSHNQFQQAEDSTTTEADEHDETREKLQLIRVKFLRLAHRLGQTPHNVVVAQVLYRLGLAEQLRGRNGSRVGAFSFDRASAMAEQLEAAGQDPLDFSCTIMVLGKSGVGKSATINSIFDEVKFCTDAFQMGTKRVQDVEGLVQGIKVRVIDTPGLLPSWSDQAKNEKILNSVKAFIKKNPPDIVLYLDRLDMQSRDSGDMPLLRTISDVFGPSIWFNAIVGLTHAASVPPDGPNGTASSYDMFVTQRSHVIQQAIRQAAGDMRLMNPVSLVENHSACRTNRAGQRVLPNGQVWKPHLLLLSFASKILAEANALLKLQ

Binder | relative strength of interaction (β-Gal) with Toc132AG against Toc132G, % change [%] | % increase in strength of interaction (β-Gal) with Toc132AG against Toc132G [%]
B1 | -15 | –
B2 | -29.9 | –
B3 | -34.7 | –
B4 | -24.5 | –
B5 | – | 24.5
B6 | -25.4 | –
B7 | – | 175
B8 | -36.4 | –
B9 | -26.8 | –
B10 | – | 49.6
B11 | – | 41.3
B12 | -11.7 | –
B13 | -25.5 | –
